Source: PMC5524996

Target: IssA (iron-sulfur storage protein A), native thioferrate-bound nanoparticle form from Pyrococcus furiosus (Pyrococcus furiosus)
Test: negative stain TEM; purified native IssA, untreated (20-300 nm) and after 3 M guanidinium chloride, 0.5 mM EDTA, 25 mM DTT (16-22 nm spheres); composition estimated from the volume of a 20 nm sphere, densities and the Fe:protein ratio

Substance: IssA (iron-sulfur storage protein A), native thioferrate-bound nanoparticle form from Pyrococcus furiosus (natural protein)
- stoichiometry N: 170
